Test results: patent publication US20220395553A1 (COHBAR, published 2022)
Square brackets hold non-standard residues; d marks the D form. Ends that are not written are not given here.

How the values were obtained:
[1] = target: ProLink tagged human CXCR4 (C2C12 CXCR4 β-Arrestin cell line) (human, UniProt P61073 1-352); assay: cell-based or functional assay
[2] = target: CXCR4 on cultured U937 and Jurkat cells (human, UniProt P61073 1-352); assay: cell-based or functional assay
[3] = target: T1, SNAP tagged-CXC4 receptor labeled with terbium (Tag-lite CXCR4 cells, HEK293) (UniProt P61073 1-352, SNAP tag labeled with terbium fluorescent dye); assay: HTRF competition on Tag-lite CXCR4 HEK293 cells; competitor labelled CXCL12
T1 construct: whole, on cells; Bought frozen cells (PerkinElmer-CisBio), HEK293 transiently expressing the receptor; also called terbium labeled CXCR receptor
T1 sequence (P61073 whole entry): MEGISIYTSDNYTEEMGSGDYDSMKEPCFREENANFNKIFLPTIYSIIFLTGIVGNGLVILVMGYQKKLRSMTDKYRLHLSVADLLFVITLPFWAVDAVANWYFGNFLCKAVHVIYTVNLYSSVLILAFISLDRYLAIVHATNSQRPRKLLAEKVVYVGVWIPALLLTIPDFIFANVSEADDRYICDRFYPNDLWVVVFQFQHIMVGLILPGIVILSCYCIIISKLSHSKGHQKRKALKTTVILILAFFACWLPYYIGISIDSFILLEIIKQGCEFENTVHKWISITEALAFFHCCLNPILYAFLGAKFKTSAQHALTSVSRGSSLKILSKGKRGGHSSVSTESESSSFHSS
Description: Peptides were initially prepared as 1 mM stock in H₂O and tested at a final concentration of 400 nM. Following the manufacture's protocol, a frozen aliquot of Tag-lite CXCR4 cells was thawed and immediately seeded onto 384-well plates in TLB. Immediately following the addition of cells, 400 nM peptide (final concentration) in TLB was added to the appropriate well. […] The plates were covered in aluminum foil and left at room temperature for 3 hours. Following the 3 hour incubation period, the plates were removed from the incubator and fluorescence measured using a Cytation 1 plate reader using a HTRF filter cube ([…]; BioTek; Winooski, Vt.).

Sequence of ProLink tagged human CXCR4 (C2C12 CXCR4 β-Arrestin cell line) (P61073 whole entry): as above
Sequence of CXCR4 on cultured U937 and Jurkat cells (P61073 whole entry): as above

LERYHHS[dA]RTSLRPYTK [SEQ ID NO: 76]
IC50 for Inhibition of CXCR4 Activation (β-Arrestin recruitment) [1]: 6 nM | Percent Inhibition of CXCR4/CXCL12 Induced p-MEK (100 nM Test Article) [2]: 5% | Percent Inhibition of CXCR4/CXCL12 Induced p-MEK (1 µM Test Article) [2]: 44% | Percent Inhibition of CXCR4/CXCL12 Binding (400 nM peptide) [3]: 75%

RYHHSVRSSLRPYTK [SEQ ID NO: 11]
IC50 for Inhibition of CXCR4 Activation (β-Arrestin recruitment) [1]: 175 nM | Percent Inhibition of CXCR4/CXCL12 Binding (400 nM peptide) [3]: -9%

SVRSSLRPYTK [SEQ ID NO: 15]
IC50 for Inhibition of CXCR4 Activation (β-Arrestin recruitment) [1]: > 1000 nM | Percent Inhibition of CXCR4/CXCL12 Binding (400 nM peptide) [3]: -11%

LERYHHSVRSSLRPY [SEQ ID NO: 19]
IC50 for Inhibition of CXCR4 Activation (β-Arrestin recruitment) [1]: 19 nM | Percent Inhibition of CXCR4/CXCL12 Binding (400 nM peptide) [3]: 44%

LRRYNHSVRSSLRPYTK [SEQ ID NO: 41]
IC50 for Inhibition of CXCR4 Activation (β-Arrestin recruitment) [1]: 4 nM | Percent Inhibition of CXCR4/CXCL12 Binding (400 nM peptide) [3]: -2%

LRRYHHSVRSSLEPYTK [SEQ ID NO: 63]
IC50 for Inhibition of CXCR4 Activation (β-Arrestin recruitment) [1]: 14 nM | Percent Inhibition of CXCR4/CXCL12 Binding (400 nM peptide) [3]: 9%

LERYHHS[dA]RSSLRPYSK [SEQ ID NO: 78]
IC50 for Inhibition of CXCR4 Activation (β-Arrestin recruitment) [1]: 12 nM | Percent Inhibition of CXCR4/CXCL12 Induced p-MEK (100 nM Test Article) [2]: 29% | Percent Inhibition of CXCR4/CXCL12 Induced p-MEK (1 µM Test Article) [2]: 46% | Percent Inhibition of CXCR4/CXCL12 Binding (400 nM peptide) [3]: 72%

LRRYHHS[dA]RSSLRPYTK [SEQ ID NO: 6]
IC50 for Inhibition of CXCR4 Activation (β-Arrestin recruitment) [1]: 8 nM | Percent Inhibition of CXCR4/CXCL12 Binding (400 nM peptide) [3]: -10%

LERYHHSVRSSLRP [SEQ ID NO: 20]
IC50 for Inhibition of CXCR4 Activation (β-Arrestin recruitment) [1]: 37 nM | Percent Inhibition of CXCR4/CXCL12 Binding (400 nM peptide) [3]: 37%

RRYHHSVRSSLRPYTK [SEQ ID NO: 10]
IC50 for Inhibition of CXCR4 Activation (β-Arrestin recruitment) [1]: 103 nM | Percent Inhibition of CXCR4/CXCL12 Binding (400 nM peptide) [3]: -8%

LERYHHT[dA]RSSLRPYTK [SEQ ID NO: 40]
IC50 for Inhibition of CXCR4 Activation (β-Arrestin recruitment) [1]: 5 nM | Percent Inhibition of CXCR4/CXCL12 Induced p-MEK (100 nM Test Article) [2]: 33% | Percent Inhibition of CXCR4/CXCL12 Induced p-MEK (1 µM Test Article) [2]: 94%

LRRYHHSVRSSL [SEQ ID NO: 28]
IC50 for Inhibition of CXCR4 Activation (β-Arrestin recruitment) [1]: 4 nM | Percent Inhibition of CXCR4/CXCL12 Binding (400 nM peptide) [3]: 12%

LRRYQHSVRSSLRPYTK [SEQ ID NO: 47]
IC50 for Inhibition of CXCR4 Activation (β-Arrestin recruitment) [1]: 11 nM | Percent Inhibition of CXCR4/CXCL12 Binding (400 nM peptide) [3]: 5%

LRRYHHSVRSSLRP [SEQ ID NO: 26]
IC50 for Inhibition of CXCR4 Activation (β-Arrestin recruitment) [1]: 67 nM | Percent Inhibition of CXCR4/CXCL12 Binding (400 nM peptide) [3]: 1%

LRRYHQSVRSSLRPYTK [SEQ ID NO: 50]
IC50 for Inhibition of CXCR4 Activation (β-Arrestin recruitment) [1]: 121 nM | Percent Inhibition of CXCR4/CXCL12 Binding (400 nM peptide) [3]: -5%

LERYHNSVRSSLRPYTK [SEQ ID NO: 45]
IC50 for Inhibition of CXCR4 Activation (β-Arrestin recruitment) [1]: 121 nM | Percent Inhibition of CXCR4/CXCL12 Binding (400 nM peptide) [3]: 1%

LERYQHS[dA]RSSLRPYTK [SEQ ID NO: 49]
IC50 for Inhibition of CXCR4 Activation (β-Arrestin recruitment) [1]: 66 nM | Percent Inhibition of CXCR4/CXCL12 Binding (400 nM peptide) [3]: 20%

LERYHNS[dA]RSSLRPYTK [SEQ ID NO: 46]
IC50 for Inhibition of CXCR4 Activation (β-Arrestin recruitment) [1]: 187 nM | Percent Inhibition of CXCR4/CXCL12 Binding (400 nM peptide) [3]: -4%

LERYHQS[dA]RSSLRPYTK [SEQ ID NO: 52]
IC50 for Inhibition of CXCR4 Activation (β-Arrestin recruitment) [1]: 121 nM | Percent Inhibition of CXCR4/CXCL12 Binding (400 nM peptide) [3]: -2%

LERYHHSVRSSLR [SEQ ID NO: 21]
IC50 for Inhibition of CXCR4 Activation (β-Arrestin recruitment) [1]: 16 nM | Percent Inhibition of CXCR4/CXCL12 Binding (400 nM peptide) [3]: 20%

LREYHHSVRSSLRPYTK [SEQ ID NO: 31]
IC50 for Inhibition of CXCR4 Activation (β-Arrestin recruitment) [1]: > 1000 nM | Percent Inhibition of CXCR4/CXCL12 Binding (400 nM peptide) [3]: -16%

LERYHHS[dA]RSTLRPYTK [SEQ ID NO: 77]
IC50 for Inhibition of CXCR4 Activation (β-Arrestin recruitment) [1]: 4 nM | Percent Inhibition of CXCR4/CXCL12 Induced p-MEK (100 nM Test Article) [2]: 7% | Percent Inhibition of CXCR4/CXCL12 Induced p-MEK (1 µM Test Article) [2]: 68% | Percent Inhibition of CXCR4/CXCL12 Binding (400 nM peptide) [3]: 77%

LRRYHHSVRSSLRPYT [SEQ ID NO: 24]
IC50 for Inhibition of CXCR4 Activation (β-Arrestin recruitment) [1]: 102 nM | Percent Inhibition of CXCR4/CXCL12 Binding (400 nM peptide) [3]: 8%

LERYNHSVRSSLRPYTK [SEQ ID NO: 42]
IC50 for Inhibition of CXCR4 Activation (β-Arrestin recruitment) [1]: 22 nM | Percent Inhibition of CXCR4/CXCL12 Binding (400 nM peptide) [3]: 32%

LREYHHS[dA]RSSLRPYTK [SEQ ID NO: 32]
IC50 for Inhibition of CXCR4 Activation (β-Arrestin recruitment) [1]: > 1000 nM | Percent Inhibition of CXCR4/CXCL12 Binding (400 nM peptide) [3]: -18%

LRRYHNSVRSSLRPYTK [SEQ ID NO: 44]
IC50 for Inhibition of CXCR4 Activation (β-Arrestin recruitment) [1]: 32 nM | Percent Inhibition of CXCR4/CXCL12 Binding (400 nM peptide) [3]: 0%

LRRYHHSVRSS [SEQ ID NO: 29]
IC50 for Inhibition of CXCR4 Activation (β-Arrestin recruitment) [1]: 46 nM | Percent Inhibition of CXCR4/CXCL12 Binding (400 nM peptide) [3]: 14%

HHSVRSSLRPYTK [SEQ ID NO: 13]
IC50 for Inhibition of CXCR4 Activation (β-Arrestin recruitment) [1]: > 1000 nM | Percent Inhibition of CXCR4/CXCL12 Binding (400 nM peptide) [3]: -10%

LRRYHHS[dA]RSSLDPYTK [SEQ ID NO: 69]
IC50 for Inhibition of CXCR4 Activation (β-Arrestin recruitment) [1]: 63 nM | Percent Inhibition of CXCR4/CXCL12 Binding (400 nM peptide) [3]: -5%

LRRYHHS[dA]RSSLEPYTK [SEQ ID NO: 65]
IC50 for Inhibition of CXCR4 Activation (β-Arrestin recruitment) [1]: 40 nM | Percent Inhibition of CXCR4/CXCL12 Binding (400 nM peptide) [3]: -5%

LERYHHSVRSS [SEQ ID NO: 23]
IC50 for Inhibition of CXCR4 Activation (β-Arrestin recruitment) [1]: 28 nM | Percent Inhibition of CXCR4/CXCL12 Binding (400 nM peptide) [3]: 23%

LRRYHHSVRSSLRPY [SEQ ID NO: 25]
IC50 for Inhibition of CXCR4 Activation (β-Arrestin recruitment) [1]: 51 nM | Percent Inhibition of CXCR4/CXCL12 Binding (400 nM peptide) [3]: 0%

LERYHHSVRSSL [SEQ ID NO: 22]
IC50 for Inhibition of CXCR4 Activation (β-Arrestin recruitment) [1]: 17 nM | Percent Inhibition of CXCR4/CXCL12 Binding (400 nM peptide) [3]: 14%

LRRYHHSVESSLRPYTK [SEQ ID NO: 62]
IC50 for Inhibition of CXCR4 Activation (β-Arrestin recruitment) [1]: 64 nM | Percent Inhibition of CXCR4/CXCL12 Binding (400 nM peptide) [3]: 4%

YHHSVRSSLRPYTK [SEQ ID NO: 12]
IC50 for Inhibition of CXCR4 Activation (β-Arrestin recruitment) [1]: > 1000 nM | Percent Inhibition of CXCR4/CXCL12 Binding (400 nM peptide) [3]: -13%

LERYHQSVRSSLRPYTK [SEQ ID NO: 51]
IC50 for Inhibition of CXCR4 Activation (β-Arrestin recruitment) [1]: 134 nM | Percent Inhibition of CXCR4/CXCL12 Binding (400 nM peptide) [3]: -2%

LRRYHHS[dA]ESSLRPYTK [SEQ ID NO: 64]
IC50 for Inhibition of CXCR4 Activation (β-Arrestin recruitment) [1]: 14 nM | Percent Inhibition of CXCR4/CXCL12 Binding (400 nM peptide) [3]: -6%

LRDYHHS[dA]RSSLRPYTK [SEQ ID NO: 37]
IC50 for Inhibition of CXCR4 Activation (β-Arrestin recruitment) [1]: > 1000 nM | Percent Inhibition of CXCR4/CXCL12 Binding (400 nM peptide) [3]: -14%

LRRYHHS[dA]DSSLRPYTK [SEQ ID NO: 68]
IC50 for Inhibition of CXCR4 Activation (β-Arrestin recruitment) [1]: 13 nM | Percent Inhibition of CXCR4/CXCL12 Binding (400 nM peptide) [3]: -10%

LRRYHHSVRSSLR [SEQ ID NO: 27]
IC50 for Inhibition of CXCR4 Activation (β-Arrestin recruitment) [1]: 34 nM | Percent Inhibition of CXCR4/CXCL12 Binding (400 nM peptide) [3]: 10%

LERYQHSVRSSLRPYTK [SEQ ID NO: 48]
IC50 for Inhibition of CXCR4 Activation (β-Arrestin recruitment) [1]: 53 nM | Percent Inhibition of CXCR4/CXCL12 Binding (400 nM peptide) [3]: 13%

HSVRSSLRPYTK [SEQ ID NO: 14]
IC50 for Inhibition of CXCR4 Activation (β-Arrestin recruitment) [1]: > 1000 nM | Percent Inhibition of CXCR4/CXCL12 Binding (400 nM peptide) [3]: -15%
